The values that follow come from article PMC8221791.

Assay [1] deals with recombinant Endothelial Protein C Receptor (EPCR) (UniProt Q9UNN8). Put plainly: static adhesion assay of infected erythrocytes on spots of recombinant protein; recombinant receptor adsorbed as 20 ul spots on petri dishes in PBS overnight at 4°C (two-fold dilutions 10 to 0.31 ug/ml), blocked with Albumax; Percoll-purified trophozoite-stage infected HbAS (sickle-trait) RBCs, 4x10^6 cells per ml, 1 h at 37°C; washed, fixed, Giemsa-stained, counted per image; four-parameter log-logistic fit.

Assay [2] shares this target. Put plainly: static adhesion assay of infected erythrocytes on spots of recombinant protein; recombinant receptor adsorbed as 20 ul spots on petri dishes in PBS overnight at 4°C (two-fold dilutions 10 to 0.31 ug/ml), blocked with Albumax; Percoll-purified trophozoite-stage infected HbAA RBCs, 4x10^6 cells per ml, 1 h at 37°C; washed, fixed, Giemsa-stained, counted per image; four-parameter log-logistic fit.

The target in assay [3] is recombinant CD36 (UniProt P16671). As to the kind of experiment: static adhesion assay of infected erythrocytes on spots of recombinant protein; recombinant receptor adsorbed as 20 ul spots on petri dishes in PBS overnight at 4°C (two-fold dilutions 10 to 0.31 ug/ml), blocked with Albumax; Percoll-purified trophozoite-stage infected HbAS (sickle-trait) RBCs, 4x10^6 cells per ml, 1 h at 37°C; washed, fixed, Giemsa-stained, counted per image; four-parameter log-logistic fit.

Assay [4] shares this target. Put plainly: static adhesion assay of infected erythrocytes on spots of recombinant protein; recombinant receptor adsorbed as 20 ul spots on petri dishes in PBS overnight at 4°C (two-fold dilutions 10 to 0.31 ug/ml), blocked with Albumax; Percoll-purified trophozoite-stage infected HbAA RBCs, 4x10^6 cells per ml, 1 h at 37°C; washed, fixed, Giemsa-stained, counted per image; four-parameter log-logistic fit.

Chain of UniProt Q9UNN8 (Q9UNN8 18-210): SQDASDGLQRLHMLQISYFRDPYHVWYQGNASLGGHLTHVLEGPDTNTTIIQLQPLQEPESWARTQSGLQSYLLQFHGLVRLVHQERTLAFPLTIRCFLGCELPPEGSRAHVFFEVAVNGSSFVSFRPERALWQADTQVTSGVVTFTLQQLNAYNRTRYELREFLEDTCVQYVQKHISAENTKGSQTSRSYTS
Chain of UniProt P16671 (P16671 whole entry): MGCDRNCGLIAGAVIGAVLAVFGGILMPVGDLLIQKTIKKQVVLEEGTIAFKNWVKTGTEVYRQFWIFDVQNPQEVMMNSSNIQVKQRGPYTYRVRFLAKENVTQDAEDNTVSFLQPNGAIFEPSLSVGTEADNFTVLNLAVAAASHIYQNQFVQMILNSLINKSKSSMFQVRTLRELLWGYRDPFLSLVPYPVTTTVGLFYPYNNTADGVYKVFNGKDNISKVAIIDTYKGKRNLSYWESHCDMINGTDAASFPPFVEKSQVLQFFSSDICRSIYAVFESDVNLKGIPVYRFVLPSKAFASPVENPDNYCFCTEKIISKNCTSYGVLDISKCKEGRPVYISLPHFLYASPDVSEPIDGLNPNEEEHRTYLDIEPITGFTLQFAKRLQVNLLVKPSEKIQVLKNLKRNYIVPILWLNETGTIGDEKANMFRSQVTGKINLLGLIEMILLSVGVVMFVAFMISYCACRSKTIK

For “IT4var20 PfEMP1 (EPCR-binding P. falciparum Erythrocyte Membrane Protein 1 variant of strain IT4) (natural protein)”, the EPCR spot concentration at estimated 50% adhesion is 0.5 µg/mL in assay [1] and 0.3 µg/mL in assay [2].
In the case of “IT4var30 PfEMP1 (CD36-binding P. falciparum Erythrocyte Membrane Protein 1 variant of strain IT4) (natural protein)”, the CD36 spot concentration at estimated 50% adhesion in assay [3] was 2.7 µg/mL; in assay [4], 2.5 µg/mL.
